Experiment [1] has as its target T1, recombinant human transferrin receptor 1 (human, UniProt P02786 89-760).
T1 construct: Recombinant protein used in ELISA and SPR; also called hTfR1; huTfR1
The experiment in a line: ELISA, DMPK oligo (ASO300) conjugate binding to hTfR1.

Experiment [2] concerns the target T2, cynomolgus monkey (Macaca fascicularis) transferrin receptor 1 (cynomolgus monkey (Macaca fascicularis), UniProt Q5RDH6 89-760 (Pongo abelii entry), limits assumed).
T2 construct: Recombinant protein used in ELISA and SPR; also called cTfR1; cyno TfR1
T2 chain: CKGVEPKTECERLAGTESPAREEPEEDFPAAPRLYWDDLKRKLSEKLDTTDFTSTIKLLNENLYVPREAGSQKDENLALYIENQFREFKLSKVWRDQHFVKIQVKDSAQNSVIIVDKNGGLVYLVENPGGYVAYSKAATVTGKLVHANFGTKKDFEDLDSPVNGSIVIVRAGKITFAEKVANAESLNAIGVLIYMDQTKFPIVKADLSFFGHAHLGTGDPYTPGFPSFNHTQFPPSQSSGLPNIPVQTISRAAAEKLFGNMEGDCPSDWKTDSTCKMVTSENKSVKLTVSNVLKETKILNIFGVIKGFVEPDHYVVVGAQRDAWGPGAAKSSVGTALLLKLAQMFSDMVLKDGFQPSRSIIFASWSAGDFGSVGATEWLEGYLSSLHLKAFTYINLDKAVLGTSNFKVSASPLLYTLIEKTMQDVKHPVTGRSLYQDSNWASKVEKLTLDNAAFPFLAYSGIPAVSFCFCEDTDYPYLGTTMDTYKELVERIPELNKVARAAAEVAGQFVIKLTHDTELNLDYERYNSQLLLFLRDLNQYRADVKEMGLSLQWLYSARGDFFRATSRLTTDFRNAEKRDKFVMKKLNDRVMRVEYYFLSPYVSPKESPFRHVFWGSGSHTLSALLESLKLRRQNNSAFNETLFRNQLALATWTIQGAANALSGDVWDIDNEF
Kind of experiment: ELISA, DMPK oligo (ASO300) conjugate binding to cyno TfR1.

For experiment [3], the target named is T2, cynomolgus monkey (Macaca fascicularis) …. The experiment in a line: ELISA, plate-coated cyno TfR1, Fab-ASO300 conjugate; printed as 'Conjugate binding affinity ELISA'.
In experiment [4] the target is T1, recombinant human transferrin receptor 1. The experiment in a line: ELISA, plate-coated human TfR1, Fab-ASO300 conjugate; printed as 'Conjugate binding affinity ELISA'.

T1 sequence (P02786 89-760 limits assumed): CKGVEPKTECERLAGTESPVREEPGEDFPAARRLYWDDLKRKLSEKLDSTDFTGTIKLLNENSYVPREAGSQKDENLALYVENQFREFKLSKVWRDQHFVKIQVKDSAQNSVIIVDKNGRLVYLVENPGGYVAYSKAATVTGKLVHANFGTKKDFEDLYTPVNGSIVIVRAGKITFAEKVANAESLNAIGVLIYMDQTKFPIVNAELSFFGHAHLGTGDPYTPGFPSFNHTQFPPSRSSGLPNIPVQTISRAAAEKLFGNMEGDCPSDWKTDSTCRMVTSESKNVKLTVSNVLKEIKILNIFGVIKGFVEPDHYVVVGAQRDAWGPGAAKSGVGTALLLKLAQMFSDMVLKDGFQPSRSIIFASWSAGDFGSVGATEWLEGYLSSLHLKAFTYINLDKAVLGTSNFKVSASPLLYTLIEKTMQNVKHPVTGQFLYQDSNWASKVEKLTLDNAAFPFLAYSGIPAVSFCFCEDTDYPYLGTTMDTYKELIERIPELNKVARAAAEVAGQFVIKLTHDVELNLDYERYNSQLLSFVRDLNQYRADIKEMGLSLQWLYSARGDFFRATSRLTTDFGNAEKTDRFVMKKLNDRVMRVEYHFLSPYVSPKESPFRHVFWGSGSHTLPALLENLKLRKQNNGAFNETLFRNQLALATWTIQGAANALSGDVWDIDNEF

B1: 5H12 (VH5-C33D/Vk4) Fab conjugated to DMPK-targeting oligonucleotide ASO300 (Fab, V domains shown)
VH: QVQLVQSGAEVKKPGASVKVSCKASGYSFTDYDINWVRQAPGQGLEWMGWIYPGSGNTRYSERFKGRVTITRDTSASTAYMELSSLRSEDTAVYYCAREDYYPYHGMDYWGQGTLVTVSS
VL: DIVMTQSPDSLAVSLGERATINCRASESVDGYDNSFMHWYQQKPGQPPKLLIFRASNLESGVPDRFSGSGSGTDFTLTISSLQAEDVAVYYCQQSSEDPWTFGQGTKLEIKR
notes: Fab covalently conjugated to ASO300; also called 5H12 (VH5-C33D/Vk4) conjugate
In the case of B1, the EC50 was found to be 110 nM in experiment [1], 10.2 nM in experiment [2], 10.2 nM in experiment [3] and 110 nM in experiment [4].

B2: 5H12 (VH5-C33Y/Vk4) Fab conjugated to DMPK-targeting oligonucleotide ASO300 (Fab, V domains shown)
VH: QVQLVQSGAEVKKPGASVKVSCKASGYSFTDYYINWVRQAPGQGLEWMGWIYPGSGNTRYSERFKGRVTITRDTSASTAYMELSSLRSEDTAVYYCAREDYYPYHGMDYWGQGTLVTVSS
VL: DIVMTQSPDSLAVSLGERATINCRASESVDGYDNSFMHWYQQKPGQPPKLLIFRASNLESGVPDRFSGSGSGTDFTLTISSLQAEDVAVYYCQQSSEDPWTFGQGTKLEIKR
notes: Fab covalently conjugated to ASO300
Take B2: the EC50 in experiment [1] is 13.9 nM; in experiment [2], 13.9 nM; in experiment [4], 23.7 nM.

B3: 5H12 (VH5-C33Y/Vk3) Fab conjugated to DMPK-targeting oligonucleotide ASO300 (Fab, V domains shown)
VH: QVQLVQSGAEVKKPGASVKVSCKASGYSFTDYYINWVRQAPGQGLEWMGWIYPGSGNTRYSERFKGRVTITRDTSASTAYMELSSLRSEDTAVYYCAREDYYPYHGMDYWGQGTLVTVSS
VL: DIVLTQSPDSLAVSLGERATINCRASESVDGYDNSFMHWYQQKPGQPPKLLIFRASNLESGVPDRFSGSGSRTDFTLTISSLQAEDVAVYYCQQSSEDPWTFGQGTKLEIKR
notes: Fab covalently conjugated to ASO300; also called 5H12 (VH5-C33Y/Vk3) conjugate
With B3, the values for the concentration for a half-maximal effect (EC50) in experiment [3] and in experiment [4] were 2.3 nM and 33.4 nM, respectively.

B4: 3A4 (VH3-N54S/Vk4) Fab conjugated to DMPK-targeting oligonucleotide ASO300 (Fab, V domains shown)
VH: EVQLVQSGSELKKPGASVKVSCTASGFNIKDDYMYWVRQPPGKGLEWIGWIDPESGDTEYASKFQDRVTVTADTSTNTAYMELSSLRSEDTAVYYCTLWLRRGLDYWGQGTLVTVSS
VL: DIVMTQSPLSLPVTPGEPASISCRSSKSLLHSNGYTYLFWFQQRPGQSPRLLIYRMSNLASGVPDRFSGSGSGTDFTLKISRVEAEDVGVYYCMQHLEYPFTFGGGTKVEIKR
notes: Fab covalently conjugated to ASO300; also called 3A4 (VH3-N54S/Vk4) conjugate
B4: the EC50 in experiment [1] amounted to 2.71 nM; in experiment [2], 4.1 nM; in experiment [3], 7.8 nM; in experiment [4] it was 2.9 nM.

B5: 3A4 (VH3-N54T/Vk4) Fab conjugated to DMPK-targeting oligonucleotide ASO300 (Fab, V domains shown)
VH: EVQLVQSGSELKKPGASVKVSCTASGFNIKDDYMYWVRQPPGKGLEWIGWIDPETGDTEYASKFQDRVTVTADTSTNTAYMELSSLRSEDTAVYYCTLWLRRGLDYWGQGTLVTVSS
VL: DIVMTQSPLSLPVTPGEPASISCRSSKSLLHSNGYTYLFWFQQRPGQSPRLLIYRMSNLASGVPDRFSGSGSGTDFTLKISRVEAEDVGVYYCMQHLEYPFTFGGGTKVEIKR
notes: Fab covalently conjugated to ASO300; also called 3A4 (VH3-N54T/Vk4) conjugate
Turning to B5, the half-maximal effective concentration (EC50) in experiment [2] is 5.12 nM; in experiment [3] it was 4.7 nM; in experiment [4], 2.8 nM.

B6: 3A4 (VH3/Vk4) Fab conjugated to DMPK-targeting oligonucleotide ASO300 (Fab, V domains shown)
VH: EVQLVQSGSELKKPGASVKVSCTASGFNIKDDYMYWVRQPPGKGLEWIGWIDPENGDTEYASKFQDRVTVTADTSTNTAYMELSSLRSEDTAVYYCTLWLRRGLDYWGQGTLVTVSS
VL: DIVMTQSPLSLPVTPGEPASISCRSSKSLLHSNGYTYLFWFQQRPGQSPRLLIYRMSNLASGVPDRFSGSGSGTDFTLKISRVEAEDVGVYYCMQHLEYPFTFGGGTKVEIKR
notes: Fab covalently conjugated to ASO300; also called 3A4 (VH3/Vk4) conjugate
Regarding B6, the concentration giving a half-maximal response (EC50) amounted to 2.84 nM in experiment [1], 7.59 nM in experiment [2], 7.6 nM in experiment [3] and 2.8 nM in experiment [4].

B7: 3M12 (VH3/Vk2) Fab conjugated to DMPK-targeting oligonucleotide ASO300 (Fab, V domains shown)
VH: QVQLQESGPGLVKPSQTLSLTCSVTGYSITSGYYWNWIRQPPGKGLEWMGYITFDGANNYNPSLKNRVSISRDTSKNQFSLKLSSVTAEDTATYYCTRSSYDYDVLDYWGQGTTVTVSS
VL: DIQMTQSPSSLSASVGDRVTITCRASQDISNFLNWYQQKPGQPVKLLIYYTSRLHSGVPSRFSGSGSGTDFTLTISSLQPEDFATYFCQQGHTLPYTFGQGTKLEIKR
notes: Fab covalently conjugated to antisense oligonucleotide ASO300 (linker of Formula (C)); also called 3M12 (VH3/Vk2) conjugate; DMPK oligo conjugate
Regarding B7, the EC50 stood at 1.14 nM in experiment [1], 2.26 nM in experiment [2], 2.9 nM in experiment [3] and 2.2 nM in experiment [4].

B8: 3M12 (VH4/Vk3) Fab conjugated to DMPK-targeting oligonucleotide ASO300 (Fab, V domains shown)
VH: QVQLQESGPGLVKPSQTLSLTCTVTGYSITSGYYWNWIRQPPGKGLEWIGYITFDGANNYNPSLKNRVSISRDTSKNQFSLKLSSVTAEDTATYYCTRSSYDYDVLDYWGQGTTVTVSS
VL: DIQMTQSPSSLSASVGDRVTITCRASQDISNFLNWYQQKPGQPVKLLIYYTSRLHSGVPSRFSGSGSGTDFTLTISSLQPEDFATYYCQQGHTLPYTFGQGTKLEIKR
notes: Fab covalently conjugated to ASO300; also called 3M12 (VH4/Vk3) conjugate; DMPK oligo conjugate
Take B8: the EC50 came out at 1.18 nM in experiment [1], 1.85 nM in experiment [2], 2.1 nM in experiment [3] and 1.7 nM in experiment [4].

The values are drawn from patent publication US20230051954A1 (published 2023).
